Measured values reported in the nanobody polyreactivity screen of Harvey et al. (2022).

Assay: yeast display, Sf9 membrane polyspecificity reagent, FACS + sequencing; frameworks hold sequencing errors
In short: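 Nanobodies came from a synthetic yeast display library in Saccharomyces cerevisiae BJ5465, induced with galactose for 36–48 hours and stained for 1 hour at 4 °C with 10% biotinylated, detergent-solubilized Sf9 membrane reagent. Cells were enriched on streptavidin microbeads and then FACS-sorted, with low and high (top ~1%) gates set on anti-HA fluorescence for expression and streptavidin fluorescence for reagent binding. Each polyreactivity label reflects the gate a clone came from. Genes were amplified by colony PCR, sequenced by MiSeq 2 × 250 and filtered by CDR length.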

Sequence | polyreactivity (PSR sort gate)
QVQLVESGGGLVQAGGSLRLSCAASGRTIYSNAMGGYRQAPGKERELVAAITGSSGSTYYADSVKGRFTISRDNAKNTVYLQMNSLKPEDTAVYYCAASCYCSLVRQLRLRGQGTQVTVSS | low polyreactivity
QVQLVESGGGLVQAGGSLRLSCAASGIIFTSNTMGWYRPAPGKEREFVASINWNGSSTYADSVKGRFTISRDNAKNTVYLQMYSLKPDDTAVYYCNADSNRNSVQFSLYDYWGQGTQVTVSS | low polyreactivity
QVQLVESGGGLVQAGGSLRLSCAASGFTFRYYVMGWYRQAPGKERELVAAITSGGSTNYADSVKGRFTISRDNAKNTVYLQMNSLKPEDTAVYYCYAAYRSYGRFDYWGQGTQVTVSS | low polyreactivity
QVQLVESGGGLVQAGGSLRLSCAASGSIFANNAMGWYRQAPGKERELVAAISSSGGSTYYADSVKGRFTISRDNAKNTVYLQMNSLKPEDTAVYYCAARFYYGRRYSTSYDYWGQGTQVTVSS | high polyreactivity
QVQLVESGGGLVQAGGSLRLSCAASGFTFSRNAMGWYRQAPGKERELVAAISQSGGSTYYADSVKGRFTISRDNAKNTVYLQMHSLKPEDTAVYYCAAVGRLARRDYWGQGTQVTVSS | high polyreactivity
QVQLVESGGGIVQAGGSLRLSCAASGSTFRLYAMGWYRQAPGKERELVAAITWSVGSTYYADSVKGRFTISRDNAKNTVYLQMNSLKPEDTAVYYCAADRIGYYLRVSYRGKYDHWGQGTQVTVSS | low polyreactivity
QVQLVESGVGLVQAGGSLRLSCAASGSIFEYYTMGWYRQAPGKERELVAAISSDGSTNYADSVTGRFTISRDDAKTTVYLQMISLKPEDTAVDYCASSTSRFYYYRKRGYWGQGTQVTVSS | low polyreactivity
QVQLVESGGGLVQAGGSLRLSCAASGSTLRYYAMGWYRQAPGKERELVAAISTGGSTYYADSVKVRFTISRDNAKNTVYLQMNSLKAEDTAVYYCAAEKKTKTYRYDYWGQGTQVTVSS | low polyreactivity
QVQLVESGVGLVQAGGSLLLSCSSSGRIFDLNAMGWYRQAPGKERELVAVIDRDGSTYYADSVKGRFTISRDNAKNTVYLQMNSLKPEDTAVYYCNKYWYSRHVRYWAYYAEQRYDYWGQGTQVTVSS | low polyreactivity
QVQLVESGGGLVQAGGSLRLSCAASGSIFVVYAMGWYRPAHGKERELVAAIDSGGSTYYADSVKGRFTISRDNAKNTVYLQMNSMKTEDTAVYYCAADIYYYLWGLYYWGQGTQVTVSS | low polyreactivity
QVQLVESGGGLVQAGGSLRLSCAASGSIFSVNAMGWYRQAPGKERELVAAISWRGGSTYYADSVKGRFTISRDNAKNTVYLQMNSLKPEDTAVYYCNAVISVKRSTRYGYWGQGTQVTVSS | low polyreactivity
QDQLVESGGGVVQAGGSLRLSCAASGSTFEYNAMGWYRQAPGKERELVASSTNYADSVKGRFTISRDNAKNTVYLQMNSLKPEDTAVYYCGREQGVNRNHDYWGQGTQVTVSS | low polyreactivity
QVQLVESGGGLDQAGGSRRLSCAASGSTFSSYAMGWYSQAPGQARELVAVITASGGSTYYADSVKGRFTISRDNPKNTVYLQMNSLKPDDTAVYYCAADPRSGDQYGKGDYWGQGTQVTGSS | low polyreactivity
QVQLVESGGGLVQAGGSLRLSCAASGRTFVTYAMGWYRQAPGKEREFVAAISRNGGSTYYADSVKGRFTISRDNAKNTVYLQMNSLKPEDTAVYYCAKGRPWYRGDYWGQGTQVTVSS | low polyreactivity
QVHLVESGGGLVQAGGSLRLSFAASGRIFDLYTMGWYRQAPGKERELVAAIRWSDGSTYYADSVKGRFTISRDNAKNTVYLQMNSLKPEDTAVYYCAADTRTSYYNDDYDYWGQGTQVTVSS | low polyreactivity
QVHLVDSGGGLVQAGGSLRLSCSASGLIFSGYAMRWYRQAPGKERELVAAITRRGSRTYYADSVTGRFTISRDKAKNTVYLQMNSLKPEDTAVYYCAADRFQGRDDYWGQGTQVTVSS | high polyreactivity

Sequence | polyreactivity (PSR sort gate)
QVQLVESGGGLVQAGGSLRLSCAASGSTFDRYAMGWYRQAPGKERELVAAITGSGGRTYYADSVKGRFTISRDNAKNTVYLQMNSLKPEDTAVYYCAARRSGYYLYSVDYWGQGTQVTVST | high polyreactivity
QVQLVESGGGLVQAGGSLRLSCAASGSTFIGYDMGWFRQAPGTERELVAAISYSDGTYYADSVKGRFTISRDNAKNTVYLQMNSLKPEDTAVYYCAADSLYYRYDYWGQGTQVTVSS | low polyreactivity
QFQLVESGGCLVQAGGSLRISSASSGSTLANYAMGWYRQAPGKEREFVAAINSGGSTYYADSVKGRFTISRDIAKNTVYLQMNSLKPEDTAVYYCAARYASPRYKSKMDYWGQGTQVTVSS | high polyreactivity
QVQLVESGGGLVQAGGSLRISCAASGIIFPYYVMGWYRQAPGKERELVAAINSGGRTYYADSVKGRFTISRDNAKNTVYLQMNSLKPEDTAVYYCARDLYYVYSFAPYRYEYWGQGTQVTVSS | low polyreactivity
QVQLVESGGGLVQAGGILRLSCAASGSIFQYNAKGWYIQEPGKEREFVAAISGSGTTTYYADSVKGRFTISRDNAKNTVYLQMNSLKPEDTAVYYCAKAIRHYPDVAYNAWGQGSQVTVSS | high polyreactivity
QVQLVESGGGLVQAGGSLRLSCAASGSTFGTYAQGCYRQAPVKDRELVAAITYSTGNTYDADSVKGRFTISRDNAKNTVYLQMNSLKPEDTAVYYCALEYVYDYFWMDYWGQGTQVTVSS | high polyreactivity
QVQLVESGGGLVQAGGSLRLSCAASGFTFTKYAMGWYRQAPVKERELVADITSGTSTYNADSVKGRFTISRDNAKNTVYLQMNSLKPEDTAVYYCAAPLYGRYSYGYWGQGTQVTVSS | high polyreactivity
QVQLVESGGGLVQAGGSLRLSCAASGRILAYYVMGWYRQAPGKERELVAGINWSGGSTYYADSVKGRFTISRDNAKHTFYLQMNSLKPEDTGVYNCAARFVGVRDGYYYWGQGTQVTVSS | high polyreactivity
QVQLVESGGGLVQAGGRLRLSCAASGSIFDYNGMGWYRQAPGKERELVATITLSTARTYYADSVKGRFTISRDNAKNTVYLQMNSLKPEDTAVYYCATRYPKFRRRNYWGQGTQVTVSS | high polyreactivity
QVQLEESGGGLVQAGGRLRLSCAASGFIFWGNAMGWYRQAPGKERELVAGIRSLGGTTSYEDSVKGRFTISRDNAKNSVYLQINSLKPEDTAVYSCAAGYVAEFDYWGQVTQVTVSS | low polyreactivity
QVHLVESGGGLVQAGGSLRLSCAATGLIFPRYAMGWSRQAPGKEREMVAAITRGGSTYYADSVKGRFTISRDNAKNTVYLQMYSLKPEDTAVYYCNADYSPSTWYLYYSLYYYWGQGTQVTVSS | low polyreactivity
QVQLVESGGGLVQAGGSLRLSCAASGRIFAYYAMGWYRQAPGKERELVAAITSSGGSTYYADSVKGRFTISRDNAKNTVYLQMNSLKPEDTAVYFCAKVGARSERFDYRGQGTQVTVSS | high polyreactivity
QLQLQEGGGGLLQAGGSLRLSCAASGYISYGDVMGWYRQAPGEERELVASIGLDATTNYADSVKGRFTISRDNSKNTVYLQMNSLKPEDTAVYYCPADRGAPFSLHYWGQGTQVTVSS | high polyreactivity
QVQLVESGGGLVQSGGSLRLTWAASGFTFNRYAMGWYRQAPGKEMELVAAITSRSGITYYADSVKGRFTISRDNAKNTVYLQMNSLKPEDTAVYYCAAYVSRSTEFDYGFWGQGTQVTVSS | high polyreactivity
QVQLVESGGGLVQAGGSLRLSCAASGSIFYRYALGWYRQAPGKEREFVAGITTRGGSTYYADSVKGRFTISRDNAKNTVYFQMNCLKPEDTAVYDCAASSRVWPNFGYWGQGTQVTVSS | high polyreactivity
QVQLVESGGGLVQAGGSLRLSCAASGRIVWFYTMGWYRQAPGKERELVAAISDSAGSTYYADSVKGRFTISRDNAKNTVYLQMNSLKPEDTAVYYCAADGWWQYDYWGQGTQVTVSS | low polyreactivity
